Source: a protein production outcome set (Wang et al. 2014)

Assay: label from the status in PepcDB records
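Further: failed if final PepcDB status was selected cloned or expressed and not failed if soluble or beyond.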

Row | Sequence | protein production
1 | MTAYDLKLKCVCDYIQQHLDETLSLQQLSEVAGLSRFHFHRIFYAHLGMNIMKYTQMLRLKRASFQLVFKPEVKVIEIALDAGFDSPEAFARAFKRSFDQTPSAFRVEPNWQNWHRKFVYFTPESELKMNVTIIERPVEKIAYISHQGSPEKVFETAAKFIEWRKRTGLSPVKTSATYGIPFSDPEQTPEKEFRFDIAGSITKSIDQNNEGIEMSEIPAGRYAMVRHWGSHDYIRDSVYFLFRNWLPAQQEEAGDYPVFFHYHNFVHEVKEADLVTDIYLLLK | failed
2 | MICLPETGFLAEASPRLKQMLAAQAAEIGLARGDTLFKQGDPGDALYAVLSGALEISILSLDGRKLSLDLVGPGAVFGEIALFDPGPRTATVSAAEPARVLRVLSADVMAELRRHPELAIDMVRLAGQRMRWMGGQLNEQVFLPVPTRLARKLLHLAPHHDAGGATVRLSQAELAEYVGATREAVSKTLAHWKRMGVIEVARGTLAIRDPQALRALADPDQI | failed
3 | MIDCLVMAGGQGARMGFREKPLLSVCGQPMLLRVLSALRMACRRIAIVYSRHTPGVKRLCLSGALGAVECIEGPGSYVKDLRLGFSHISTPLLVAPADMPFLNPHHLNLFIDRALADGASIVNLSLRGRGLTGLSVFKHHRGWWRDVETNGCWALDVDTWEDFRRAGELCGGECTGEGLRLELLEHHHHHH | failed
4 | HDVIFHIRAKGKNQKLLLSAHPSYSRVHITAQAYENPSEPPMFCMLLRKHIEGGFIEKIEQAGLDRIMIFHIKSRNEIGDETVRKLYVEIMGRHSNIILTDAAENVIIDGLKHLSPSMNSYRTVLPGQDYKLPPAQDKISPLEASEDDILRHLSFQEGRLDKQIVDHFSGVSPLFAKEAVHRAGLANKVTLPKALLALFAEVKEHRFIPNITTVNGKEYFYLLELTHLKGEARRFDSLSELLDRFYFGKAERDRVKQQAQDLERFVVNERKKNANKIKKLEKTLEYSENAKEFQLYGELLTANLYMLKKGD | failed
5 | MSGDVQPRKRKDKRRKRDDDESSHGVHITKMGNEDLHLHVHHDHGTGGHWCAKIIFFALMAVLLGLVGLIIMENRGLEDLDTPLSESRFSKVFDGWVDEHRDEHDGHDVQEPSGEALDDHDEHDDHDDHEDEDEEPLTEELEEELEEEEEPTEEDEPAADEEYEEDEDEENNAGENITAEDAEEEEEEEDNDDEGTVEATVEATTEATTEATGEYEAEEDDEDEAAADDDAVESTEAPLSKAEEQEDDEDEDEEEQEIEESVEPERSQYAAQSAPAKDNNDDDDDDDQDKNDADDGDDDEFESLAQQFENDPEDTVPAKAVESEEQDQDQADEEEPKEEGSSWLASQIKPKEAAPAPAEKEDPFEQELRKANEEMIRENYAQALRSFNTLTTNFAHEPSAHLGRARLLELLAKKERSNQRLWEAIDAYKRYLAFGELVASNQEFQTAGESCIENLRFLGHHRQATTIHELLINRLPEDPRLRNQLSLTYLMVNNLQQVEKVAVETLKLWPNNAVAQLHYGLALRQFHADYAKALPYLKYAVESGEEGTQEAFFYLSLGETMQRLSMKSEALEVYGKGVAKGFFASLYQRSLYNEPRLRAQPFWQPKETGYERQLEKLTLNWRAIRDEGLALLGRSGFFEDEAELLRDKGVWQQYELYAQGRRVKDNCRRAPITCSLLEEFPESAGCRRGQVKFSVMQAKTHVWPHCGPTNCRLRAHLTLAAPEPEKASLRVAEQERTWREGELFIFDDSFEHEVWHNGSQSRLVLILDMWHPQLSAAQRRSLSPI | failed
6 | MEFDKSVQNYLIGANFSSGLVLDISKKENYILDRISILEQLSKDKKIIHLGCCDHIPLIQNKIENNTWLHSRLCSNSKRCIGVDINKDGIKYLKNNLGYEDVLCGDIIEEELNAIKEEHWDYMILGEILEHIDNPCLFLSDVQKKYHGIVDRLVITVPNALSYQNMKYTFLNKEYINTDHRYWFTPYTLGKIVTLAGMEVEKFFFCVPFPRDNGVFYALNPKSILFDFICKRYPPTRETLLMVAVV | failed
7 | VFADKLDITVDQKKIILPYWLSRPVSYGAVIIVSGGETAQWSLLLEQFAKGLARNGWSVVLLNCTKNNSIPWINQLPEVISTLRQNNNKRIVLVHYGDQLNLALEYFSKPQSKMINGLVMLSAYDLNRNLQKVPRLRFPLFDIVGQFDYDMVRQQRKSREEKFKENSYLAIDIPGATHDYQYSQQLLLAFVHGWM | not failed
8 | MSMNQFRTMEEEKQDGGELFHTIEVAKVDRNNVSQPPPAATAALLEVPGDELNLIPPLNFSMVDNGIFRSGFPDSANFSFIKTLGLRSIISLCPEPYPENNMQFLKSNGISLFQFGIEGSKSKEPFVDILDQKIREALKVLLDEKNHPLLIHCKRGKHRTGCLVGCMRKLQKWCITSILDEYKRFAAAKARVSDQRFLESFDVSGLKHTPMSFSCSNR | failed
9 | MAPCAGGTCRTASERRHLQCRSRPSQGRQGGSKSAGRGFIAAEFPCLDGGEPISTARAFRDRNREFSPAMRAILDIVLIILDLYIWLLIASAILSWLIAFNVVNTRNQFVGAVSEFLYRITEPLLAPIRNLLPSLGGLDISPIILILLIMFLQRVITYYIYPAVF | failed
10 | MTALRQDIDPNGLLEYSVVYTDRALNHMSKAFQEVMNDLLSNLKTVYNAEAAVIIPGSGTYGMEAVARQLTIDEDCLIIRNGWFSYRWTQILEKGKFAKSSTVLTAERTEDTEAPKPFAPVDIETAVAKIKEDKSAIVYAPHVETSSGIILSEEYIKALSEAVHSVGGLLVIDCIASGCVWLDMKELGIDVLISAPQKGWSSTPCAGLVMLSAAAIKKVESTESNCFSLDLKQWLTIMRAYENGGHAYHATMPTDSLRQFRDAILEAKEIGFDILRDAQWELGNRVRKVLTDKGIESVAAEGFEAPGVVVSYTERDDMHKGSAFAEAGLQIAAGVPLKVGEPDNFKTFRLGLFGLDKLTDIDGTVERFEKALDEVLAK | not failed
11 | MAVPRWAVRDLTQISSARELSLRLEQARNDFRATVGSICYFNASARTPGQFDDEYIMTDQSLTYVYADGVTAQSCAMNRLLPSSSSNFGAAATAIPPWLLDPPRLNRLLREGTDEGGLVNYYEGPHKNAFFLAIMRSCIFVRPGADEINGVSYDFFARSGNYTEQLEHHHHHH | failed
12 | MGHHHHHHSHAESHLQSSLITASQFFEIWLHFDADGSGYLEGKELQNLIQELQQARKKAGLELSPEMKTFVDQYGQRDDGKIGIVELAHVLPTEENFLLLFRCQQLKSCEEFMKTWRKYDTDHSGFIETEELKNFLKDLLEKANKTVDDTKLAEYTDLMLKLFDSNNDGKLELTEMARLLPVQENFLLKFQGIKMCGKEFNKAFELYDQDGNGYIDENELDALLKDLCEKNKQDLDINNITTYKKNIMALSDGGKLYRTDLALILCAGDN | not failed
13 | MQKKQVIAVLVAVVGIGIVFSLPKVLVDNEKESVEGAEVTVAHEDSLSEVGKLMAEKHTHKPSDSEQKKLQDFTKNYYSISDKEKKRIFADSILGYYNKFHKYDSVAKYSGEIAMLQPNEKNLLSAADAYMQASDLVSVNEKSAYMDKSRLYYEKALDINASNLDTKSKLAMTYVTTSNPMTGIRILQEVVKEDPRNETAIFNLGYLSMQSRQYNKAVDRFKSLIEINPAHASGTFYLGLSYLELGNKGKANQYFMKAKGLDSDPEFQAIIDSYLKESN | failed
14 | MDTSDLFASCRKGDVGRVRYLLEQRDVEVNVRDKWDSTPLYYACLCGHEELVLYLLANGARCEANTFDGERCLYGALSDPIRRALRDYKQVTASCRRRDYYDDFLQRLLEQGIHSDVVFVVHGKPFRVHRCVLGARSAYFANMLDTKWKGKSVVVLRHPLINPVAFGALLQYLYTGRLDIGVEHVSDCERLAKQCQLWDLLSDLEAKCEKVSEFVASKPGTCVKVLTIEPPPADPRLREDMALLADCALPPELRGDLWELPFPCPDGFNSCPDICFRVAGCSFLCHKAFFCGRSDYFRALLDDHFRESEEPATSGGPPAVTLHGISPDVFTHVLYYMYSDHTELSPEAAYDVLSVADMYLLPGLKRLCGRSLAQMLDEDTVVGVWRVAKLFRLARLEDQCTEYMAKVIEKLVEREDFVEAVKEEAAAVAARQETDSIPLVDDIRFHVASTVQTYSAIEEAQQRLRALEDLLVSIGLDC | failed
15 | MVVAVYPGTFDPLTRGHEDLVRRASSIFDTLVVGVADSRAKKPFFSLEERLKIANEVLGHYPNVKVMGFTGLLKDFVRANDARVIVRGLRAVSDFEYEFQMAGMNRYLLPDVETMFMTPSDQYQFISGTIVREIAQLGGDVSKFVFPSVEKWLTEKVAAMAQGPSA | not failed
16 | MSETLAVVRASRPNFLLLAPLCAGLGLAVAWQQGQAPELLHTFLVFLGAVLAHAAVNLLNEYDDFRSGLDMITERTPFSGGSGALPEVPTAARRVLWAGLGTLAVVVTIGLYFLWLRGLPLLVLGAAGVVLVLTYTRWITRSPLLCLLAPGMGFGPIMVLGTVIALGASIDTSALLASLVALLMVSELLLINQIPDAEADRAIGRRHLVITLGPEKAAHLVAGLLLASYGVIVAGMVSGYLAMTSLIALAPLPAAVWISLRLPRVLAMPDQLNRVLGANVAVLLSTLALLVTGLSL | failed
17 | MLKQPIQAQQLIELLKVHYGIDIHTAQFIQGGADTNAFAYQADSESKSYFIKLKYGYHDEINLSIIRLLHDSGIKEIIFPIHTLEAKLFQQLKHFKIIAYPFIHAPNGFTQNLTGKQWKQLGKVLRQIHETSVPISIQQQLRKEIYSPKWREIVRSFYNQIEFDNSDDKLTAAFKSFFNQNSAAIHRLVDTSEKLSKKIQPDLDKYVLCHSDIHAGNVLVGNEESIYIIDWDEPMLAPKERDLMFIGGGVGNVWNKPHEIQYFYEGYGEINVDKTILSYYRHERIVEDIAVYGQDLLSRNQNNQSRLESFKYFKEMFDPNNVVEIAFATEQ | failed
18 | MDMVTVTAKTVEEAVTKALIELQTTSDKLTYEIVEKGSAGFLGIGSKPAIIRAKRKETLQDKAIEFLEQVFDAMNMAVDISVEYNETEKEMNVNLKGDDMGILIGKRGQTLDSLQYLVSLVVNKSSSDYIRVKLDTENYRERRKETLETLAKNIAYKVKRTKRSVSLEPMNPYERRIIHAALQNDKYVVTRSDGEEPFRHVIISLKRENRRDRNDRSDRNEK | not failed
19 | MTALTPLQRLWLTETVRLREEHAGPLEDQEANRLARNQGGDLATRIQNRALWLAQRDGLHSALLHWHQGARMALLALSVLAVISGAGLAFSALGSTQQPVNVFWALGSLLGINLILLLSWLAGLLFAGEHGASLGRLWLWLSEKFSRDAKAAQLPPALLLLLQRRKLNRWALGSLINGLWCLALFSAVVMLLLLLTTHRYSFVWESTLLGSDAFVAITNTLSALPRGLGFGAPSVASIQASTRDVYNTELIRQSWAIWLVVLVTIYGVLPRLLLMLFCRWRWKHGQARLQLDLNLPGYAQLRERLMPSSERLGVNDAAPEQLHRVEGGVSAQDSSGALLVAIELDNQRPWPPQLPESIKDAGILDSRESRSRLLEQMSRFPPARLVIACDPRRSPDRGSLGLIAELARNASATRVWLLQAPPGQALDADRLGDWHSALHKLQLPFADCAPLDWLENGHD | failed
20 | MDAAVIVPAYNEAESLARCLAPFESQPVELVVVVGGDDGTEQVARDTPFVDTVVRCDEGGAGIARNRGAAAATAPILLFTDADTVVPEDWVRLHLRHYADDEVIGVGGPARPLEDSLKHRVLFKLLSDYWYRVSWPLGFVQQPGFNCSFRADAFKAAGGFNEDIPFMEDTELSLRMKDYGRIVYDADSCVATSARREADEGYVSLFAKYVRGYANHYILRREFDADYFLEHHHHHH | failed
